Measured values reported in the supplement of paper PMC7125110.
± gives the standard error. Variants at the floor of the assay were thinned out.

B1: glmS ribozyme (parent)
chain: AUAAAAGCGCCAGAACUACAGAAAUGUAGUUGACGAGGAGGAGGUUUAUCGAAUUUUCGGCGGAUGCCUCCAAA

Variants of: B1
Assay: self-cleavage kobs at 10000 uM GlcN6P; higher = faster cleavage; RNA array
Conditions: with glucosamine-6-phosphate
How it was run: (§1)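 On sequenced MiSeq chips, barcoded ribozyme variants were made in situ by E. coli RNA polymerase and followed at 37 °C through a hybridised Cy3 probe. Glucosamine-6-phosphate was flowed in at 40 μM to 10 mM in HEPES/KCl/Mg(OAc)2 buffer. Exponential fits to normalised per-tile medians gave kobs, and weighted Michaelis–Menten fits gave kcat and KM.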

| Variant | self-cleavage kobs at 10000 uM GlcN6P |
| --- | --- |
| G7U C11U C16A U45A G51A G60C | < 1e-05 s⁻¹ |
| A6G U45A U57G | < 1e-05 s⁻¹ |
| G7U A48G C50G C61G | 0.000895 ± 0.00024 s⁻¹ |
| C10U G13A G40U | < 1e-05 s⁻¹ |
| A6U A12U C16U A36G | < 1e-05 s⁻¹ |
| C8U A39C G41A U57C G59U | < 1e-05 s⁻¹ |
| G7C G62C | < 1e-05 s⁻¹ |
| G7A G41A A53C | < 1e-05 s⁻¹ |
| G7A A39U G43U | < 1e-05 s⁻¹ |
| C11A G66A | 6.59e-05 ± 1.3e-05 s⁻¹ |
| C10A A14C U30G | < 1e-05 s⁻¹ |
| C8A A12G U31G A39U | < 1e-05 s⁻¹ |
| G7C C10U G60U | < 1e-05 s⁻¹ |
| G9A A53G | 3.28e-05 ± 1.3e-05 s⁻¹ |
| A6C A15U C34A A39G U65A | < 1e-05 s⁻¹ |
| C8A U56A A64G | < 1e-05 s⁻¹ |
| G7A G29A G38A G44U A48G G66U | < 1e-05 s⁻¹ |
| C10G C11G U55C G60A | < 1e-05 s⁻¹ |
| G9A G43A U57A U65A U69A C71A | < 1e-05 s⁻¹ |
| C11U A36C A39G U45G C61U | < 1e-05 s⁻¹ |
| C8G G32U G66U | < 1e-05 s⁻¹ |
| C8U A12C A15U G38U A64U | < 1e-05 s⁻¹ |
| A12C A15U U31C | 6.96e-05 ± 1.7e-05 s⁻¹ |
| G9A U65A C67A C70G | 5.56e-05 ± 1.6e-05 s⁻¹ |
| C11G G35C G63U C67A | < 1e-05 s⁻¹ |
| G7C A14U U47A | < 1e-05 s⁻¹ |

| Variant | self-cleavage kobs at 10000 uM GlcN6P |
| --- | --- |
| A6U U31C A36C | < 1e-05 s⁻¹ |
| A6U A14U G29U | < 1e-05 s⁻¹ |
| C10G A42C U69G | < 1e-05 s⁻¹ |
| G9U A15U A52U | < 1e-05 s⁻¹ |
| C8G G9U G66C C68G | < 1e-05 s⁻¹ |
| U46G U55C G66A | 0.00269 ± 0.00067 s⁻¹ |
| C11U U69C | 0.000482 ± 9.2e-05 s⁻¹ |
| A6U A12U A64G | 0.000171 ± 4.1e-05 s⁻¹ |
| A6U G7U G9C | < 1e-05 s⁻¹ |
| C11U U55G U65A | 4.36e-05 ± 2e-05 s⁻¹ |
| C11G A14C G43U | < 1e-05 s⁻¹ |
| G9U U30C G32A | < 1e-05 s⁻¹ |
| C10U G13C G63U | < 1e-05 s⁻¹ |
| G7C A15C G41A | < 1e-05 s⁻¹ |
| A1U U2G A3G C8G C34G | < 1e-05 s⁻¹ |
| C11A U45A U46G | 0.000161 ± 4e-05 s⁻¹ |
| A53G C61U C68G | 4.37e-05 ± 1.2e-05 s⁻¹ |
| G7C C34A A48G U56G C71U | < 1e-05 s⁻¹ |
| C8A C34A A64G | < 1e-05 s⁻¹ |
| A6G U30A C34U C67G C71G | 7.35e-05 ± 3.3e-05 s⁻¹ |
| G9C G32C A36U U46A | < 1e-05 s⁻¹ |
| C8G G51U G59U | < 1e-05 s⁻¹ |
| U49C U57G | < 1e-05 s⁻¹ |
| C8U G9U G37A C67G | < 1e-05 s⁻¹ |
| C11A A33G C50U C58U G59U G63A | < 1e-05 s⁻¹ |

Variants of: B1
Assay: self-cleavage kobs at 2500 uM GlcN6P; higher = faster cleavage; RNA array
Conditions: with glucosamine-6-phosphate
How it was run: as §1

| Variant | self-cleavage kobs at 2500 uM GlcN6P |
| --- | --- |
| C68U U69C C70U | 3.99e-05 ± 1.4e-05 s⁻¹ |
| G51A U56C C70G | < 1e-05 s⁻¹ |
| U55A G59A A64G | 2.94e-05 ± 1.4e-05 s⁻¹ |
| G44A U46A A48U A53C | < 1e-05 s⁻¹ |
| A53C U55G G66A | 0.00165 ± 0.00032 s⁻¹ |
| A42U U45C A52G C70U | < 1e-05 s⁻¹ |
| A42G G51C G60C C68G | < 1e-05 s⁻¹ |
| U46A U56G C67G | 0.000172 ± 4.6e-05 s⁻¹ |
| A53G C67G C68U | 7.23e-05 ± 2.2e-05 s⁻¹ |
| A53G G63U C71A | < 1e-05 s⁻¹ |
| U47G C68A C71G | 0.00013 ± 3.6e-05 s⁻¹ |
| G43U U54A C58U G59C C61G G62C A64G U65A G66U | < 1e-05 s⁻¹ |
| G44C U46G G63A | < 1e-05 s⁻¹ |
| G41A C61A G62A | < 1e-05 s⁻¹ |
| G43C A48G | < 1e-05 s⁻¹ |
| G43U U47C G63A | < 1e-05 s⁻¹ |
| U54A C67A C68U | 9e-05 ± 2.1e-05 s⁻¹ |

| Variant | self-cleavage kobs at 2500 uM GlcN6P |
| --- | --- |
| U46G U55C G66A | 0.00233 ± 0.00084 s⁻¹ |
| U55A C67U C68G C70A | 0.000233 ± 8.8e-05 s⁻¹ |
| U49G C61U C67G | < 1e-05 s⁻¹ |
| U47G C58A G59U C70G | 0.000334 ± 9.7e-05 s⁻¹ |
| U49A G51A G62U | < 1e-05 s⁻¹ |
| U56G C58A C71A | 3.99e-05 ± 1.6e-05 s⁻¹ |
| A42U G43U U46A C70U | 6.44e-05 ± 2.4e-05 s⁻¹ |
| A48C A52G C58U | < 1e-05 s⁻¹ |
| C50G C58A G66A | 0.000121 ± 4.3e-05 s⁻¹ |
| A53G C61U C68G | 6.94e-05 ± 2.7e-05 s⁻¹ |
| G40U G43U C50G | < 1e-05 s⁻¹ |
| U47A U55C U69C | 0.000127 ± 4.1e-05 s⁻¹ |
| U45A U46A | 0.0043 ± 0.0021 s⁻¹ |
| U49C U57G | < 1e-05 s⁻¹ |
| G41U A53U G60U C61A G66U | < 1e-05 s⁻¹ |
| U46G C58U C68G | 0.000337 ± 0.00012 s⁻¹ |
| G62U C68U C71A | < 1e-05 s⁻¹ |
